Patent publication US20250154494A1, “Microfluidic Co-Encapsulation Device and System and Methods for Identifying T-Cell Receptor Ligands” (JANSSEN BIOTECH, INC., priority 2021, published 2025)

How the values were obtained:
Format in all cases: cell-based
[1] = system: Jurkat and SKW3 reporter cells; assay: Co-culture of TT2-expressing P10-NBV reporter Jurkat and SKW3 cells with cognate minigene-transduced B cells overexpressing Flag-tagged surface receptors; conditions: overexpression on minigene-transduced B cells
Text: For the purpose of testing the different Flag-tagged surface receptors, InFusion-based cloning (TAKARA) was used to replace the mTagBFP2 reporter with the human codon optimized coding sequence of each candidate surface receptor, N-terminally or C-terminally tagged with a flexible 6× Flag to face the extracellular space. Specifically, the coding region of CD40, CD58, CD80, CD83, CD86, OX40L and 4-1BBL were cloned and tested.
Co-culture experiments were done using round bottom 96 well plates. P10-NBV Jurkat and SKW3 reporter cells and B cells are seeded 1 to 1 ratio into each well. Next day the cells are spun down and stained for Flow cytometry.

Jurkat cells = assay: Droplet co-culture of B and T cells, CD69 surface expression by flow cytometry; conditions: EDTA without added calcium
Protocol: One day prior to encapsulation, BOLETH cells were cultured in the presence of cognate or negative control peptides at a final concentration of 1 μM. Cells were collected the next day, centrifuged at 300 g for 5 min, then resuspended in B-cell medium at a final concentration of 1.4×10^7 cells/ml. These were further supplemented with same peptide and with or without EDTA. TCR-expressing Jurkat cells were centrifuged at 300 g and resuspended in B-cell medium at a concentration of 4×10^7 cells/ml. These were then further supplemented with respective concentrations of calcium. BOLETH, Jurkat, and detergent-containing fractions were connected to the microfluidic chip as described. Pressures were applied using an OB1 MK3+ and the droplet emulsion was collected into a 1.5 ml reaction tube containing oil.
Droplets were incubated at 37° C. in a 5% CO2 humidified incubator. Following overnight incubation, droplet emulsions were disrupted by adding two volumes of Pico-Break 1 (SPHERE FLUIDICS). Tubes were quickly inverted several times and centrifuged for 15 s at 300 rpm to facilitate separation of the cell-containing fraction. […] Tubes were centrifuged for 5 min at 300 g and cell pellets were subsequently resuspended in 100 μl of FACS buffer and were analyzed via flow cytometry. […]

[2] = system: T-cells expressing cognate TCR
BOLETH cells = assay: Labeling of BOLETH cells with scFv-containing supernatant of transfected HEK293 cells, flow cytometry; conditions: for signal strength in tandem (T2A) scFv constructs relative to single scFv constructs: αCD19-HA and αCD20-V5 in one expression construct
Text: Current generation T cell reporter systems consists of a cis-regulatory element comprising multiple copies of a synthetic promoter sequence (‘NBV’). […] The scFv is derived from a monoclonal αCD19-antibody (clone B43) binding to the B cell-specific transmembrane protein CD19, which is commonly used in monoclonal antibody-mediated immunotherapy (Uckun et al., 1988, Blood, 71(1):13-29). It is tagged with six HA epitope tags at its C-terminus, which facilitates its detection by flow cytometry. To optimize the current reporter and B cell labeling strategy, the potential of additional scFvs was tested. In particular, an αCD20-scFv derived from a human monoclonal antibody was evaluated that recognizes an epitope encompassing the membrane-proximal small-loop on the CD20 molecule, known as ofatumumab (clone 2F2) (Teeling et al., 2004, Blood, 104(6):1793-800). In order to test its functionality, scFv constructs were assembled in both the VH-VL and VL-VH configuration. The heavy and light chain domains were separated by a flexible polypeptide linker (G4S)3. To confirm that ofatumumab, as an scFv tagged with four copies of the V5 label, a small epitope-tag found on P and V proteins of the paramyxovirus, can efficiently label BOLETH cells and be detected by flow cytometry, the coding region was inserted into a CMV expression plasmid. HEK293 cells were transfected with the construct using TurboFect. As a negative control, HEK293 cells were transfected with a sfGFP-containing construct. Medium was exchanged 24 hours post-transfection. The scFv-containing supernatant (SN) was collected 72 hours post-transfection and was used to label BOLETH cells. Using fluorescent dye-conjugated antibodies recognizing the tagged scFvs, the amount of B cell bound scFv was measured by flow cytometry (FIG. 8A).
For optimizing scFv reporter constructs, constructs containing combinations of B43 and 2F2 tagged with either HA or V5 were cloned in pTwist CMV WPRE Neo BetaGlobin. For testing, HEK cells were transiently transfected with the plasmids using TurboFect (Fermentas). […]

TCR signaling = assay: Co-culture of Jurkat reporter cells carrying synthetic promoters with peptide-loaded B cells (GFP / HA reporter)
Protocol: Sleeping beauty transposon reporter constructs were transfected together with transposases into T cells, 5 to 1 ratio, using the Neon transfection system following the manufacturer's protocol. The voltages used for Jurkat cells were 1350V/[…]/3 pulse, and for SKW-3 cells 1500V, […] and 1 pulse were used as settings. 48-72 hours after transfection, the cells were selected using […] Blasticidin for Jurkat and […] Blasticidin for SKW-3 cells.
Co-culture experiments were performed using round-bottom 96-well plates. P10-NBV Jurkat and SKW-3 reporter cells and B cells were seeded at a 1:1 ratio into each well. For peptide co-culture experiments, either cognate peptide or mismatched peptide is added to each well and incubated for 16 hours. For minigene-based co-culture experiments, minigene-transduced B cells harboring either the cognate of mismatch minigenes were used. Next day the cells are spun down and stained for Flow cytometry.

4-1BBL: Flag-tagged surface receptor overexpressed on minigene-transduced B cells; SEQ ID NO:85
minigene-based T cell activation [1]: potentiates minigene-based T cell activation

O=C(O)CN(CCN(CC(=O)O)CC(=O)O)CC(=O)O [EDTA]
T-cell activation in presence of EDTA (chelation of calcium from the media) (Jurkat cells): T-cell activation is inhibited

BT1 construct: minigene expression construct with first transmembrane domain of Bcap31 fused to the minigene N-terminus; SEQ ID NO:116 (DNA AVATFLYAEVFVVLLLCIPFI)
T-cell activation with 400 AA minigene [2]: strong T-cell activation even with a 400 AA minigene | stability of T-cell activation over time [2]: stable T-cell activation over time | strength of minigene-induced T-cell activation [2]: strong T-cell activation, similar to the positive control | presentation of the TetX_400_1 minigene relative to 2B construct ([2]; TT2 TCR): did not improve the presentation

B1: αCD19-HA: secreted scFv derived from monoclonal αCD19 antibody clone B43, six HA epitope tags at C-terminus; SEQ ID NO:39 (protein)
scFv: EVQLVQSGAEVKKPGSSVKVSCKASGYAFSSYWMNWVRQAPGQGLEWMGQIWPGDSDTNYAQKFQGRVTITADESTSTAYMELSSLRSEDTAVYYCARRETTTVGRYYYAMDYWGQGTTVTVSSGGGGSGGGGSGGGGSDIQLTQSPSFLSASVGDRVTITCKASQSVDYSGDSYLNWYQQKPGKAPKLLIYDASNLVSGVPSRFSGSGSGTEFTLTISSLQPEDFATYYCQQSTENPWTFGGGTKLEIK
modifications: 6x HA tag
HA MFI, HA-tagged αCD19 scFv compared to HA-tagged αCD20 scFv (BOLETH cells; HEK supernatant staining of B cells): higher MFIs | signal strength in tandem (T2A) scFv constructs relative to single scFv constructs (BOLETH cells): remains unchanged | signal strength in tandem (T2A) scFv constructs relative to single scFv constructs (BOLETH cells; listed as αCD19 scFv): retains similar binding capacity

B2: OX40L: Flag-tagged surface receptor overexpressed on minigene-transduced B cells; SEQ ID NO:84 (protein)
chain: ERVQPLEENVGNAARPRFERNKLLLVASVIQGLGLLLCFTYICLHFSALQVSHRYPRIQSIKVQFTEYKKEKGFILTSQKEDEIMKVQNNSVIINCDGFYLISLKGYFSQEVNISLHYQKDEEPLFQLKKVRSVNSLMVASLTYKDKVYLNVTTDNTSLDDFHVNGGELILIHQNPGEFCVLGSGAGGSGSGAGGSGDYKDDDDKGAGSGDYKDDDDKGAGSDYKDDDDKGGAGSDYKDDDDKGSGDYKDDDDKGAGSGDYKDDDDKGSGAGGSS
modifications: Flag tag
minigene-based T cell activation [1]: potentiates minigene-based T cell activation

B3: P10 promoter: synthetic TCR responsive promoter, SEQ ID NO:60 (nucleic acid)
DNA: AGAGATGGGCTAACAGGTATGAGCATGGGAAAAGCATGTTTCAAGAATTTGAGATGTATTTCCCAGAAAAGGAACATGATGAAAATGGTCAGAAAAGGCATTCTTAGGGTCCCCAGATGTCTGCCTTTTCCATTGATTTTCTTTCCTGGTTAATTGCGAGGCTTGCCTCAAGGTGGAAAACAGTATCGGTTTCCACTGGATCACTAGGTCACAGGGTTTGCCTTTTTCCAAACCTGCATCTCAATTTTACCTATGATTTGCATTAAATAACTTTGGAAAAATTGAAGTTCTTGAGAAGCCACCGCGCCCGGCCTCCTCTCCTTTTCCAAATTTATACATTTTGATTGGTGGGGAGATTCCATTATAGGGGCTGGAAAACCCCTTTACCATACCATGAATGTAACTGTACTGTTACAAAGTGGAAAATAACAGTTTCCACTTTTCGCAGCTCTTTGAGAGCAGGACTCTATTTTCCAGTCTCTTTATAAGCTTCATTCATAGTGAAGCTAACAGAAGTTTTTCCATGGTTAGATTGTGCACCGGGCTGTTTTTAAATGTAATATGATTTTCCATTTACTTATTTATCTTTGTAGTTTTATGACAAAGAAAATTTTCTGAGTTACTTTTGTATCCCCACCCCCTTAAAGAAAGGAGGAAAAACTGTTTCATACAGAAGGCGTTAATTGCA
GFP and HA reporter gene expression in sleeping beauty constructs (TCR signaling; sleeping beauty constructs): high GFP and HA reporter gene expression

B4: NBVtf: synthetic transcription factor, fusion of NFAT N-terminus, Bob1 octamer-binding domain and VP16 transactivation domain; SEQ ID NO:76 (protein)
chain: MPSTSFPVPSKFPLGPAAAVFGRGETLGPAPRAGGTMKSAEEEHYGYASSNVSPALPLPTAHSTLPAPCHNLQTSTPGIIPPADHPSGYGAALDGGPAGYFLSSGHTRPDGAPALESPRIEITSCLGLYHNNNQFFHDVEVEDVLPSSKRSPSTATLSLPSLEAYRDPSCLSPASSLSSRSCNSEASSYESNYSYPYASPQTSPWQSPCVSPKTTDPEEGFPRGLGACTLLGSPRHSPSTSPRASVTEESWLGARSSRPASPCNKRKYSLNGRQPPYSPHHSPTPSPHGSPRVSVTDDSWLGNTTQYTSSAIVAAINALTTDSSLDLGDGVPVKSRKTTLEQPPSVALKVEPVGEDLGSPPPPADFAPEDYSSFQHIRKGGFCDQYLAVPQHPYQWAKPKPLSPTSYMSPTLPALDWQLPGSTSGSGKPGSGEGSTKGMLWQKPTAPEQAPAPARPYQGVRVKEPVKELLRRKRGHASSGAAPAPTAVVLPHQPLATYTTVGPSCLDMEGSVSAVTEEAALCAGWLSQPGGGGSGGGGSGGGGSTAPPTDVSLGDELHLDGEDVAMAHADALDDFDLDMLGDGDSPGPGFTPHDSAPYGALDMADFEFEQMFTDALGIDEYGG
reporter gene expression (TCR signaling; Jurkat-P10NBV-TT2 cells, BOLETH cells loaded with 0.01 μM cognate peptide): further improves reporter gene expression | reporter gene expression (TCR signaling; Jurkat-P10NBV-TT11 cells, BOLETH cells loaded with 0.1 μM cognate peptide): further improves reporter gene expression
